# Reference: IntAct's records for PubMed 15197186
# Biological target: mob1a_human MOB1A (UniProt Q9H8S9)
# Sequence (Q9H8S9 whole entry): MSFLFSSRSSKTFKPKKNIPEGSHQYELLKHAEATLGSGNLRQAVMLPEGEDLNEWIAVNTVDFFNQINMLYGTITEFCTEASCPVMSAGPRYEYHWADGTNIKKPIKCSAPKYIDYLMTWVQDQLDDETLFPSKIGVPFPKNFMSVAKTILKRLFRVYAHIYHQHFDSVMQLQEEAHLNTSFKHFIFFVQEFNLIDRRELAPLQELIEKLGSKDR
# Serine/threonine-protein kinase 38 (Homo sapiens), Q15208 L79A, sequence (Q15208 whole entry L79A): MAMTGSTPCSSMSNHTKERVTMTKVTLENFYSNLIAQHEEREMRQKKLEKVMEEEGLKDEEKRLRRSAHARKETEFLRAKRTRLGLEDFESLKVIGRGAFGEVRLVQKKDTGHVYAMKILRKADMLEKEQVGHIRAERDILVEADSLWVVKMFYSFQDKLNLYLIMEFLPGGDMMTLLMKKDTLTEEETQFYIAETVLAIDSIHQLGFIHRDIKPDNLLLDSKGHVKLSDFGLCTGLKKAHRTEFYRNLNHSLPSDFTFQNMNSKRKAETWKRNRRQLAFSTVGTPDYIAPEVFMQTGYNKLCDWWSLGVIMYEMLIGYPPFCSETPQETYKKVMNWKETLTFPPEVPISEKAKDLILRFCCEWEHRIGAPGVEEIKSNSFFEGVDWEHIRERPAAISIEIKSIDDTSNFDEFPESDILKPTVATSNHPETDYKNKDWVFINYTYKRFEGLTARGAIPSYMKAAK
# Serine/threonine-protein kinase 38 (Homo sapiens), Q15208 R41A, sequence (Q15208 whole entry R41A): as the sequence (Q15208 whole entry L79A) above, with R41A, A79L counted along it
# Serine/threonine-protein kinase 38 (Homo sapiens), Q15208 T74A, sequence (Q15208 whole entry T74A): as the sequence (Q15208 whole entry L79A) above, with T74A, A79L counted along it
# Serine/threonine-protein kinase 38 (Homo sapiens), Q15208 K24A, sequence (Q15208 whole entry K24A): as the sequence (Q15208 whole entry L79A) above, with K24A, A79L counted along it
# Serine/threonine-protein kinase 38 (Homo sapiens), Q15208 Y31A, sequence (Q15208 whole entry Y31A): as the sequence (Q15208 whole entry L79A) above, with Y31A, A79L counted along it
# Serine/threonine-protein kinase 38 (Homo sapiens), Q15208 R44A, sequence (Q15208 whole entry R44A): as the sequence (Q15208 whole entry L79A) above, with R44A, A79L counted along it
# Serine/threonine-protein kinase 38-like (Homo sapiens), Q9Y2H1 Y32A, sequence (Q9Y2H1 whole entry Y32A): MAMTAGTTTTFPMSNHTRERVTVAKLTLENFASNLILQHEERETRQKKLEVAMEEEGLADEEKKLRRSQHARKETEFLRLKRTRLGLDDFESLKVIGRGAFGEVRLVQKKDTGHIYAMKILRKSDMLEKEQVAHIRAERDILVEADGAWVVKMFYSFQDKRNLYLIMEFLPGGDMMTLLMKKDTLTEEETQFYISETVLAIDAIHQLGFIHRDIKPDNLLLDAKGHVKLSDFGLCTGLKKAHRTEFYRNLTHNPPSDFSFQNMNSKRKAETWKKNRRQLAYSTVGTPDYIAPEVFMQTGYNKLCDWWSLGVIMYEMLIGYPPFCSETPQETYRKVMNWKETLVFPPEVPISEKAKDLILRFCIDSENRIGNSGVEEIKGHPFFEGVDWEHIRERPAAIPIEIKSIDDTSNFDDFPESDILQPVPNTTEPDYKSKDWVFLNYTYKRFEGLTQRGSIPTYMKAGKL
# Serine/threonine-protein kinase 38 (Homo sapiens), Q15208 R78A, sequence (Q15208 whole entry R78A): as the sequence (Q15208 whole entry L79A) above, with R78A, A79L counted along it
row,effect of a mutation on the interaction,Substance
1,decreasing interaction,"Serine/threonine-protein kinase 38 (Homo sapiens), Q15208 R44A"
2,disrupting interaction,"Serine/threonine-protein kinase 38 (Homo sapiens), Q15208 Y31A"

# More lines, now with the values behind:
row,Substance,effect of a mutation on the interaction
1,"Serine/threonine-protein kinase 38 (Homo sapiens), Q15208 K24A",decreasing interaction
2,"Serine/threonine-protein kinase 38 (Homo sapiens), Q15208 L79A",decreasing interaction
3,"Serine/threonine-protein kinase 38 (Homo sapiens), Q15208 R41A",disrupting interaction
4,"Serine/threonine-protein kinase 38 (Homo sapiens), Q15208 R78A",disrupting interaction
5,"Serine/threonine-protein kinase 38 (Homo sapiens), Q15208 T74A",disrupting interaction

# Biological target: mob1a_human MOB1A (UniProt Q9H8S9)
# Remark: another data set of the same source
row,effect of a mutation on the interaction,Substance
1,disrupting interaction,"Serine/threonine-protein kinase 38-like (Homo sapiens), Q9Y2H1 Y32A"
